The RNAGym collection of RNA variant scans (doi:10.7554/elife.80360)

B1: Hairpin Ribozyme (parent)
chain: GUCCUCUUUCACGUGCGCGUGAAAGAGAGAAGUGAACCAGAGAAACACACGUUGUGGUAUAUUACCUGGUA

Variants of: B1
Assay: self-cleavage, relative activity (ratio to wild type); higher = more cleavage; co-transcriptional

Variant | self-cleavage
GUCCUCUUUCACGUGCGCGUGAAAGAGAGAAGUGAACCGGAGAAACACACGUUGUGGUAUAUGACCUGGUA [A39G U63G] | 0.147
GUCCUCUUUCACGUGCGCGUGAAAGAGAGAAGUGAACCGGAGAAACACACGUUGUGGUAUAUCACCUGGUA [A39G U63C] | 0.158
GUCCUCUUUCACGUGCGCGUGAAAGAGAGAAGUGAACCUGAGAAACACACGUUGUGGCAUAUUACCUGGUA [A39U U58C] | 0.46
GUCCUCUUUCACGUGCGCGUGAAAGAGAGAAGUGAACCUGAGAAACACACGUUGUGGGAUAUUACCUGGUA [A39U U58G] | 0.227
GUCCUCUUUCACGUGCGCGUGAAAGAGAGAAGUGAACCUGAGAAACACACGUUGUGGAAUAUUACCUGGUA [A39U U58A] | 0.328
GUCCUCUUUCACGUGCGCGUGAAAGAGAGAAGUGAACCUGAGAAACACACGUUGGGGUAUAUUACCUGGUA [A39U U55G] | 0.108
GUCCUCUUUCACGUGCGCGUGAAAGAGAGAAGUGAACCUGAGAAACACACGUUGCGGUAUAUUACCUGGUA [A39U U55C] | 0.183
GUCCUCUUUCACGUGCGCGUGAAAGAGAGAAGUGAACCGGAGAAAAACACGUUGUGGUAUAUUACCUGGUA [A39G C46A] | 0.0818
GUCCUCUUUCACGUGCGCGUGAAAGAGAGAAGUGAACCGGAGAAAUACACGUUGUGGUAUAUUACCUGGUA [A39G C46U] | 0.119
GUCCUCUUUCACGUGCGCGUGAAAGAGAGAAGUGAACCGGAGAAAGACACGUUGUGGUAUAUUACCUGGUA [A39G C46G] | 0.113
GUCCUCUUUCACGUGCGCGUGAAAGAGAGAAGUGAACCUGAGAAACACACCUUGUGGUAUAUUACCUGGUA [A39U G51C] | 0.35
GUCCUCUUUCACGUGCGCGUGAAAGAGAGAAGUGAACCUGAGAAACACACAUUGUGGUAUAUUACCUGGUA [A39U G51A] | 0.585
GUCCUCUUUCACGUGCGCGUGAAAGAGAGAAGUGAACCUGAGAAACACACGUUAUGGUAUAUUACCUGGUA [A39U G54A] | 0.122
GUCCUCUUUCACGUGCGCGUGAAAGAGAGAAGUGAACCGGAGAAACACACGUUGUGGUAGAUUACCUGGUA [A39G U60G] | 0.21
GUCCUCUUUCACGUGCGCGUGAAAGAGAGAAGUGAACCUUAGAAACACACGUUGUGGUAUAUUACCUGGUA [A39U G40U] | 0.149
GUCCUCUUUCACGUGCGCGUGAAAGAGAGAAGUGAACCUAAGAAACACACGUUGUGGUAUAUUACCUGGUA [A39U G40A] | 0.134
GUCCUCUUUCACGUGCGCGUGAAAGAGAGAAGUGAACCUCAGAAACACACGUUGUGGUAUAUUACCUGGUA [A39U G40C] | 0.149
GUCCUCUUUCACGUGCGCGUGAAAGAGAGAAGUGAACCGGAGAAACACACAUUGUGGUAUAUUACCUGGUA [A39G G51A] | 0.396
GUCCUCUUUCACGUGCGCGUGAAAGAGAGAAGUGAACCUGAGAAACACACGUUGUGGUAUAUUACCUGGUA [A39U] | 0.424
GUCCUCUUUCACGUGCGCGUGAAAGAGAGAAGUGAACCUGAGAAACACACGUUGUGGUAUAUUCCCUGGUA [A39U A64C] | 0.177
GUCCUCUUUCACGUGCGCGUGAAAGAGAGAAGUGAACCUGAGAAACACACGUUGUGGUAUAUUUCCUGGUA [A39U A64U] | 0.16
GUCCUCUUUCACGUGCGCGUGAAAGAGAGAAGUGAACCGGAGAAACACACGUUGUGGUAUAUUACCUGAUA [A39G G69A] | 0.112
GUCCUCUUUCACGUGCGCGUGAAAGAGAGAAGUGAACCGGAGAAACACACGUUGUGGUAUAUUACCUGCUA [A39G G69C] | 0.101
GUCCUCUUUCACGUGCGCGUGAAAGAGAGAAGUGAACCUGAGAAACACACGUUGUGGUAGAUUACCUGGUA [A39U U60G] | 0.256
GUCCUCUUUCACGUGCGCGUGAAAGAGAGAAGUGAACCGGAGAAACACACGUUGUGGUAUAUUACCUGGUG [A39G A71G] | 0.222
GUCCUCUUUCACGUGCGCGUGAAAGAGAGAAGUGAACCAAAGAAACUCACGUUGUGGUAUAUUACCUGGUA [G40A A47U] | 0.154

Variant | self-cleavage
GUCCUCUUUCACGUGCGCGUGAAAGAGAGAAGUGAACCAAAGAAACCCACGUUGUGGUAUAUUACCUGGUA [G40A A47C] | 0.194
GUCCUCUUUCACGUGCGCGUGAAAGAGAGAAGUGAACCGGAGAAACAUACGUUGUGGUAUAUUACCUGGUA [A39G C48U] | 0.0998
GUCCUCUUUCACGUGCGCGUGAAAGAGAGAAGUGAACCUGAGAAACACACGUUGUGGUAUAUUAACUGGUA [A39U C65A] | 0.238
GUCCUCUUUCACGUGCGCGUGAAAGAGAGAAGUGAACCUGAGAAACACACGUUGUGGUAUAUUAUCUGGUA [A39U C65U] | 0.201
GUCCUCUUUCACGUGCGCGUGAAAGAGAGAAGUGAACCGGAGAAACACACGUUGUGAUAUAUUACCUGGUA [A39G G57A] | 0.129
GUCCUCUUUCACGUGCGCGUGAAAGAGAGAAGUGAACCGGAGAAACACACGUUGUGUUAUAUUACCUGGUA [A39G G57U] | 0.0985
GUCCUCUUUCACGUGCGCGUGAAAGAGAGAAGUGAACCGGAGAAACACACGUUGUGCUAUAUUACCUGGUA [A39G G57C] | 0.105
GUCCUCUUUCACGUGCGCGUGAAAGAGAGAAGUGAACCGGAGAAACACACGUUGUGGUAUAUUAACUGGUA [A39G C65A] | 0.442
GUCCUCUUUCACGUGCGCGUGAAAGAGAGAAGUGAACCUGAGAAACAUACGUUGUGGUAUAUUACCUGGUA [A39U C48U] | 0.206
GUCCUCUUUCACGUGCGCGUGAAAGAGAGAAGUGAACCUGAGAAACAAACGUUGUGGUAUAUUACCUGGUA [A39U C48A] | 0.135
GUCCUCUUUCACGUGCGCGUGAAAGAGAGAAGUGAACCUGAGAAACAGACGUUGUGGUAUAUUACCUGGUA [A39U C48G] | 0.124
GUCCUCUUUCACGUGCGCGUGAAAGAGAGAAGUGAACCUGAGAGACACACGUUGUGGUAUAUUACCUGGUA [A39U A44G] | 0.119
GUCCUCUUUCACGUGCGCGUGAAAGAGAGAAGUGAACCGGAGAAACACAGGUUGUGGUAUAUUACCUGGUA [A39G C50G] | 0.111
GUCCUCUUUCACGUGCGCGUGAAAGAGAGAAGUGAACCGGAGAGACACACGUUGUGGUAUAUUACCUGGUA [A39G A44G] | 0.129
GUCCUCUUUCACGUGCGCGUGAAAGAGAGAAGUGAACCGGAGAAACACCCGUUGUGGUAUAUUACCUGGUA [A39G A49C] | 0.176
GUCCUCUUUCACGUGCGCGUGAAAGAGAGAAGUGAACCUGAAAAACACACGUUGUGGUAUAUUACCUGGUA [A39U G42A] | 0.18
GUCCUCUUUCACGUGCGCGUGAAAGAGAGAAGUGAACCUGACAAACACACGUUGUGGUAUAUUACCUGGUA [A39U G42C] | 0.158
GUCCUCUUUCACGUGCGCGUGAAAGAGAGAAGUGAACCGGAGAAACACACGUUGUGGUAUAAUACCUGGUA [A39G U62A] | 0.12
GUCCUCUUUCACGUGCGCGUGAAAGAGAGAAGUGAACCGGAGAAACACACGUUGUGGUAUACUACCUGGUA [A39G U62C] | 0.145
GUCCUCUUUCACGUGCGCGUGAAAGAGAGAAGUGAACCUGAGAAACACACGUUGUGGUAUAUUACCUGGAA [A39U U70A] | 0.289
GUCCUCUUUCACGUGCGCGUGAAAGAGAGAAGUGAACCUGAGAAAGACACGUUGUGGUAUAUUACCUGGUA [A39U C46G] | 0.164
GUCCUCUUUCACGUGCGCGUGAAAGAGAGAAGUGAACCGGAGAAACACACGUCGUGGUAUAUUACCUGGUA [A39G U53C] | 0.273
GUCCUCUUUCACGUGCGCGUGAAAGAGAGAAGUGAACCGGAGAAACACACGUGGUGGUAUAUUACCUGGUA [A39G U53G] | 0.207
GUCCUCUUUCACGUGCGCGUGAAAGAGAGAAGUGAACCAAAGAAGCACACGUUGUGGUAUAUUACCUGGUA [G40A A45G] | 0.147
GUCCUCUUUCACGUGCGCGUGAAAGAGAGAAGUGAACCUGAGAAACACACGUUGUGGUAUAUGACCUGGUA [A39U U63G] | 0.137
GUCCUCUUUCACGUGCGCGUGAAAGAGAGAAGUGAACCUGAGAAACACACGUUGUGGUAUAUAACCUGGUA [A39U U63A] | 0.114

Variant | self-cleavage
GUCCUCUUUCACGUGCGCGUGAAAGAGAGAAGUGAACCGGAGAAUCACACGUUGUGGUAUAUUACCUGGUA [A39G A45U] | 0.111
GUCCUCUUUCACGUGCGCGUGAAAGAGAGAAGUGAACCGGAGAAACACACGAUGUGGUAUAUUACCUGGUA [A39G U52A] | 0.23
GUCCUCUUUCACGUGCGCGUGAAAGAGAGAAGUGAACCUGAGAAACACACGUUGUGGUAUAUUACCUGGUG [A39U A71G] | 0.221
GUCCUCUUUCACGUGCGCGUGAAAGAGAGAAGUGAACCGGAGAAACACACGUUGUGGUAUAUUUCCUGGUA [A39G A64U] | 0.123
GUCCUCUUUCACGUGCGCGUGAAAGAGAGAAGUGAACCGGAGAAACACACGUUGUGGUAUAUUCCCUGGUA [A39G A64C] | 0.174
GUCCUCUUUCACGUGCGCGUGAAAGAGAGAAGUGAACCUGAGAAACACACGUUGUGGUAUAUUACCUAGUA [A39U G68A] | 0.199
GUCCUCUUUCACGUGCGCGUGAAAGAGAGAAGUGAACCUGAGAAACACACGUUGUGGUAUAUUACCUCGUA [A39U G68C] | 0.0955
GUCCUCUUUCACGUGCGCGUGAAAGAGAGAAGUGAACCGGAGAAACACACGUUGUCGUAUAUUACCUGGUA [A39G G56C] | 0.117
GUCCUCUUUCACGUGCGCGUGAAAGAGAGAAGUGAACCUGAGGAACACACGUUGUGGUAUAUUACCUGGUA [A39U A43G] | 0.103
GUCCUCUUUCACGUGCGCGUGAAAGAGAGAAGUGAACCUGAGUAACACACGUUGUGGUAUAUUACCUGGUA [A39U A43U] | 0.223
GUCCUCUUUCACGUGCGCGUGAAAGAGAGAAGUGAACCUGAGAAACACACGUGGUGGUAUAUUACCUGGUA [A39U U53G] | 0.179
GUCCUCUUUCACGUGCGCGUGAAAGAGAGAAGUGAACCUGCGAAACACACGUUGUGGUAUAUUACCUGGUA [A39U A41C] | 0.3
GUCCUCUUUCACGUGCGCGUGAAAGAGAGAAGUGAACCUGUGAAACACACGUUGUGGUAUAUUACCUGGUA [A39U A41U] | 0.458
GUCCUCUUUCACGUGCGCGUGAAAGAGAGAAGUGAACCUGAGAAACCCACGUUGUGGUAUAUUACCUGGUA [A39U A47C] | 0.168
GUCCUCUUUCACGUGCGCGUGAAAGAGAGAAGUGAACCUGAGAAACACACGUUGUGGUAUACUACCUGGUA [A39U U62C] | 0.133
GUCCUCUUUCACGUGCGCGUGAAAGAGAGAAGUGAACCGGAGAAACACACGUUGUGGUAUAUUACCGGGUA [A39G U67G] | 0.147
GUCCUCUUUCACGUGCGCGUGAAAGAGAGAAGUGAACCGGAGAAACACACGUUGUGGUAUAUUACCCGGUA [A39G U67C] | 0.544
GUCCUCUUUCACGUGCGCGUGAAAGAGAGAAGUGAACCUGAGAAACACACGUUGUGGUUUAUUACCUGGUA [A39U A59U] | 0.184
GUCCUCUUUCACGUGCGCGUGAAAGAGAGAAGUGAACCUGAGAAACACACGUUGUGGUGUAUUACCUGGUA [A39U A59G] | 0.101
GUCCUCUUUCACGUGCGCGUGAAAGAGAGAAGUGAACCUGAGAAACACACGUUGUGGUCUAUUACCUGGUA [A39U A59C] | 0.172
GUCCUCUUUCACGUGCGCGUGAAAGAGAGAAGUGAACCGGAGAAACACACGUUGUGGUAUAUUACCUGGCA [A39G U70C] | 0.372
GUCCUCUUUCACGUGCGCGUGAAAGAGAGAAGUGAACCGGAGAAACACACGUUGUGGUAUAUUACCUGGAA [A39G U70A] | 0.2
GUCCUCUUUCACGUGCGCGUGAAAGAGAGAAGUGAACCGGAGAAACACACGUUGUGGUAUAUUACCUGGGA [A39G U70G] | 0.332
GUCCUCUUUCACGUGCGCGUGAAAGAGAGAAGUGAACCGGAGAAACCCACGUUGUGGUAUAUUACCUGGUA [A39G A47C] | 0.166
